Assay results: the PETadex activity labels (doi:10.1038/s41586-022-04599-z)
Numbering of substitutions follows the chain as printed.

B1: unnamed (protein)
chain: SNPYQRGPNPTRSALTADGPFSVATYTVSRLSVSGFGGGVIYYPTGTSLTFGGIAMSPGYTADASSLAWLGRRLASHGFVVLVINTNSRFDYPDSRASQLSAALNYLRTSSPSAVRARLDANRLAVAGHSMGGGGTLRIAEQNPSLKAAVPLTPWHTDKTFNTSVPVLIVGAEADTVAPVSQHAIPFYQNLPSTTPKVYVELDNASHFAPNSNNAAISVYTISWMKLWVDNDTRYRQFLCNVNDPALSDFRTNNRHCQLEHHHHHH
B2: unnamed (protein)
chain: QTNPYARGPNPTAASLEASAGPFTVRSFTVSRPSGYGAGTVYYPTNAGGTVGAIAIVPGYTARQSSIKWWGPRLASHGFVVITIDTNSTLDQPESRSSQQMAALRQVASLNGTSSSPIYGKVDTARMGVMGWSMGGGGSLISAANNPSLKAAAPQAPWHSSTNFSSVTVPTLIFACENDSIAPVNSSALPIYDSMSRNAKQFLEINGGSHSCANSGNSNQALIGKKGVAWMKRFMDNDTRYSTFACENPNSTAVSDFRTANCSLEHHHHHH
B3: unnamed (protein)
chain: B2 chain with E94S, H159D, A253R
B4: unnamed (protein)
chain: B2 chain with R197Q, N206K
B5: unnamed (protein)
chain: MSNPYQRGPNPTRSALTADGPFSVATYTVSRLSVSGFGGGVIYYPTGTSLTFGGIAMSPGYTADASSLAWLGRRLASHGFVVLVINTNSRFDYPDSRASQLSAALNYLRTSSPSAVRARLDANRLAVAGHSMGGGGTLRIAEQNPSLKAAVPLTPWHTDKTFNTSVPVLIVGAEADTVAPVSQHAIPFYQNLPSTTPKVYVELCNASHIAPMSNNAAISVYTISWMKLWVDNDTRYRQFLCNVNDPALCDFRTNNRHCQLEHHHHHH
B6: unnamed (protein)
chain: QTNPYARGPNPTAASLEASAGPFTVRSFTVSRPSGYGAGTVYYPTNAGGTVGAIAIVPGYTARQSSIKWWGPRLASHGFVVITIDTNSTFDYPSSRSSQQMAALRQVASLNGDSSSPIYGKVDTARMGVMGHSMGGGASLRSAANNPSLKAAIPQAPWDSQTNFSSVTVPTLIFACENDSIAPVNSHALPIYDSMSRNAKQFLEINGGSHSCANSGNSNQALIGKKGVAWMKRFMDNDTRYSTFACENPNSTAVSDFRTANCSLEHHHHHH

substrate: PET; test: Proxy for plastic degradation [Released monomer concentration (HPLC/LC-MS) (MHET+TPA)]; settings: pH 6.5; 30 °C

Protein | Proxy for plastic degradation
B1 | 0.17 mM
B5 | 0.18 mM

same assay, conditions: pH 6.5; 40 °C

Protein | Proxy for plastic degradation
B1 | 0.2 mM
B5 | 0.8 mM

same assay, conditions: pH 7; 30 °C

Protein | Proxy for plastic degradation
B1 | 0.2 mM
B5 | 0.23 mM

same assay, conditions: pH 7; 40 °C

Protein | Proxy for plastic degradation
B1 | 0.4 mM
B5 | 2 mM

same assay, conditions: pH 7.5; 30 °C

Protein | Proxy for plastic degradation
B1 | 0.22 mM
B5 | 0.23 mM

same assay, conditions: pH 7.5; 40 °C

Protein | Proxy for plastic degradation
B1 | 1.9 mM
B5 | 3 mM

same assay, conditions: pH 8; 30 °C

Protein | Proxy for plastic degradation
B1 | 0.25 mM
B5 | 0.37 mM

same assay, conditions: pH 8; 40 °C

Protein | Proxy for plastic degradation
B1 | 2.3 mM
B5 | 4 mM

same assay, conditions: pH 6.5; 30 °C; part of the chain shown

Protein | Proxy for plastic degradation
B2 | 0.6 mM
B3 | 0.1 mM
B4 | 0.7 mM
B6 | 0.15 mM

same assay, conditions: pH 6.5; 40 °C; part of the chain shown

Protein | Proxy for plastic degradation
B2 | 0.5 mM
B3 | 0 mM
B4 | 1 mM
B6 | 0 mM

same assay, conditions: pH 7; 30 °C; part of the chain shown

Protein | Proxy for plastic degradation
B2 | 1.2 mM
B3 | 0.15 mM
B4 | 1.5 mM
B6 | 0.15 mM

same assay, conditions: pH 7; 40 °C; part of the chain shown

Protein | Proxy for plastic degradation
B2 | 9 mM
B3 | 0 mM
B4 | 12 mM
B6 | 0.3 mM

same assay, conditions: pH 7.5; 30 °C; part of the chain shown

Protein | Proxy for plastic degradation
B2 | 2.3 mM
B3 | 0.25 mM
B4 | 2.9 mM
B6 | 0.2 mM

same assay, conditions: pH 7.5; 40 °C; part of the chain shown

Protein | Proxy for plastic degradation
B2 | 12 mM
B3 | 0 mM
B4 | 19 mM
B6 | 1 mM

same assay, conditions: pH 8; 30 °C; part of the chain shown

Protein | Proxy for plastic degradation
B2 | 2.9 mM
B3 | 0.6 mM
B4 | 3.6 mM
B6 | 0.15 mM

same assay, conditions: pH 8; 40 °C; part of the chain shown

Protein | Proxy for plastic degradation
B2 | 13 mM
B3 | 0.2 mM
B4 | 32 mM
B6 | 2 mM

same assay, conditions: pH 8; 1 h; part of the chain shown

Protein | Proxy for plastic degradation
B4 | 13.4 mM

same assay, conditions: pH 8; 2 h; part of the chain shown

Protein | Proxy for plastic degradation
B4 | 31.1 mM

same assay, conditions: pH 8; 3 h; part of the chain shown

Protein | Proxy for plastic degradation
B4 | 48.7 mM

same assay, conditions: pH 8; 4 h; part of the chain shown

Protein | Proxy for plastic degradation
B4 | 66.7 mM

same assay, conditions: pH 8; 5 h; part of the chain shown

Protein | Proxy for plastic degradation
B4 | 88 mM

same assay, conditions: pH 8; 6 h; part of the chain shown

Protein | Proxy for plastic degradation
B4 | 109 mM

same assay, conditions: pH 8; 7 h; part of the chain shown

Protein | Proxy for plastic degradation
B4 | 131 mM

same assay, conditions: pH 8; 8 h; part of the chain shown

Protein | Proxy for plastic degradation
B4 | 148 mM

same assay, conditions: pH 8; 9 h; part of the chain shown

Protein | Proxy for plastic degradation
B4 | 163 mM

same assay, conditions: pH 8; 10 h; part of the chain shown

Protein | Proxy for plastic degradation
B4 | 175 mM

same assay, conditions: pH 8; 11 h; part of the chain shown

Protein | Proxy for plastic degradation
B4 | 185 mM

same assay, conditions: pH 8; 12 h; part of the chain shown

Protein | Proxy for plastic degradation
B4 | 195 mM

same assay, conditions: pH 8; 13 h; part of the chain shown

Protein | Proxy for plastic degradation
B4 | 204 mM

same assay, conditions: pH 8; 13.5 h; part of the chain shown

Protein | Proxy for plastic degradation
B4 | 208 mM
